Source: patent US20210388105A1 (ELPISCIENCE SUZHOU BIOPHARMA, published 2021)
Changes are numbered by the printed parent chain.

Assays:
ENTPD2 protein = biological target: T1, ENTPD2 protein (Homo sapiens (Human), UniProt Q9Y5L3 29-462); assay: ELISA on coated ENTPD2 protein, anti-hIgG-HRP, OD450
T1 construct: also called CD39L1; ENTPDase 2
T1 sequence: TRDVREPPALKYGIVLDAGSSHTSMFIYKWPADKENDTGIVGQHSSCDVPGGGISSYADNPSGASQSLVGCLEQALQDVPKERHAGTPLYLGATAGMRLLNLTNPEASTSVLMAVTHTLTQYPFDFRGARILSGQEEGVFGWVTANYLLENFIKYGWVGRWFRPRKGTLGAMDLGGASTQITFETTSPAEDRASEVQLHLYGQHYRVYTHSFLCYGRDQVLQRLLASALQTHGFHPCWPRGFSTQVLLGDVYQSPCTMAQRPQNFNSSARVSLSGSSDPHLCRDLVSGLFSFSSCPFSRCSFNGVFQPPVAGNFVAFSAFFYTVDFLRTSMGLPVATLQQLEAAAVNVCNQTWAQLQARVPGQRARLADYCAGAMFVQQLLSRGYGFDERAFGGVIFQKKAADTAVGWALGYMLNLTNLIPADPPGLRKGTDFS
Method: Binding specificity of the purified humanized antibody hu23.H5L5 against ENTPDase family members was detected by ELISA assay. Briefly, ENTPD1 (i.e. CD39) and ENTPD 2/3/5/6 proteins were coated on 96-well ELISA plates at 4° C. overnight, next day the ELISA plates were washed and blocked using blocking buffer (1% BSA in PBS with 0.05% Tween20) 200 μL/well for 2 hours. Then hu23.H5L5 gradients were duplicated into the wells and stained with anti-hIgG-HRP. After plate washing, the plates were developed with TMB substrate and stopped by 2N HCl. The OD450 were recorded using plate reader and platted by Graphpad Prism.

[1] = biological target: T2, KW27-20 (human CD39 mutant, C-terminal EGFP) (human, UniProt P49961 1-510); assay: FACS, mutant-EGFP on HEK293F cells
T2 construct: expressed on HEK293F cells; not shown: C-terminal EGFP fusion (vector pCMV3-GFPSpark)
T2 chain: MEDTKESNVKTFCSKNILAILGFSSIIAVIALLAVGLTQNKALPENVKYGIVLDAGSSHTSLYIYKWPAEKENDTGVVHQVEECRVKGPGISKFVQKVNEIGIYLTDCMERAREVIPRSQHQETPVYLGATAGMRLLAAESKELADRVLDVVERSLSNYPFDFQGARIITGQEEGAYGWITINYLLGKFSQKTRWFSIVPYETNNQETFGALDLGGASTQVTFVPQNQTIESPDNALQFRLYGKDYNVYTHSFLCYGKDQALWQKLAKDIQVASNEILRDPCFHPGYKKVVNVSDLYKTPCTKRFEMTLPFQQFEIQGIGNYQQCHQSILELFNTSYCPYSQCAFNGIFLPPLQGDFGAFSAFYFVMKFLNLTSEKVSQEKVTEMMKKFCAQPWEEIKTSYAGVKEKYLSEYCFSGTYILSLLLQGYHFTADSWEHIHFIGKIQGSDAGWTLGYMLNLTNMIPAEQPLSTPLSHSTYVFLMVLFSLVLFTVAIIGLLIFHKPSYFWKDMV
Procedure, shortened: (§1)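 HEK293F cells were transfected with human CD39 mutants carrying C-terminal GFP and used 3 days later. Antibodies were titrated from 100 nM (3-fold, 11 points) and detected by FACS with AlexaFluor647 anti-hIgG. Relative binding was AlexaFluor647 intensity divided by GFP intensity.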

[2] = biological target: T3, human CD39 (full length, on cells) (human, UniProt P49961 1-510); assay: cell-based or functional assay
T3 sequence: T2 chain with A138R, A139M, K142E

[3] = biological target: T4, KW27-2 (human CD39 mutant, C-terminal EGFP) (human, UniProt P49961 1-510); assay: FACS, mutant-EGFP on HEK293F cells
T4 construct: expressed on HEK293F cells; not shown: C-terminal EGFP fusion (vector pCMV3-GFPSpark)
T4 chain: T2 chain with V81S, E82A, R111A, V115A, A138R, A139M, K142E
Procedure, shortened: as §1

B1: hu23.H5L5 (antibody, V domains shown)
VH: QVQLVQSGAEVKKPGASVKVSCKASGYNLKDTFLHWVRQAPGQGLEWMGRIDPANGNIKYDPKFQGRVTITADTSANTAYMELISLRSEDTAVYYCANSPYYYGSGYRIFDVWGQGTTVTVSS
VL: QIVLTQSPATLSLSPGERATLSCSAFSSVNYMHWYQQKPGQAPRLLIYTTSNLASGIPTRFSGSGSGTSYTLTISSLEPEDFAVYYCQQRSTYPFTFGQGTKLEIK
notes: humanized c23
binding result (ENTPD2 protein): no binding (tested: about 66 nM)
binding result [1]: no binding (tested: 100 nM highest concentration)
ATPase inhibition IC50 on SK-MEL-28 cells [2]: 0.122 nM

B2: c35 (antibody, V domains shown)
VH: EVRLQQSGAELVKPGASVKLSCTASGFNIEDTYVHWMKQRPEQGLEWIGRIDPAIDNSKYDPKFQGKATITAVSSSNTAYLQLSSLTSEDTAVYYCALYDGYNVYAMDYWGQGTSVTVSS
VL: DIVMTQAAFSNPVTLGTSASISCRSSKNLLHSNGITYLYWYLQRPGQSPQLLIYRASTLASGVPNRFSGSESGTDFTLRISRVEAEDVGVYYCAQLLELPHTFGGGTKLEIK
notes: its making is not described; also called chimeric antibody c35
binding result [3]: no binding (tested: 100 nM highest concentration)
